The record followed here is patent US20250388683A1 (VETOQUINOL, published 2025).

In assay [1] the target is T1, canine IL-31RA expressed on HEK-Blue STAT3 canine IL-31R reporter cells (with canine OSMR) (canine). The assay can be described thus: cell-based or functional assay.
The target of assay [2] is T1, canine IL-31RA expressed on HEK-Blue …. Kind of assay: cell-based or functional assay. This is another data set of the same source.
The target is the same in assay [3]. The assay can be described thus: cell-based or functional assay. The source holds these as a separate data set.
Assay [4] has the same target. Kind of assay: cell-based or functional assay. This is another data set of the same source.
Assay [5] shares this target. Kind of assay: cell-based or functional assay. The source holds these as a separate data set.
For assay [6] the target is unchanged. The assay can be described thus: cell-based or functional assay. The source holds these as a separate data set.
Assay [7] shares this target. Kind of assay: cell-based or functional assay. This is another data set of the same source.
For assay [8] the target is unchanged. The assay can be described thus: cell-based or functional assay. The source holds these as a separate data set.
Assay [9] shares this target. The assay can be described thus: cell-based or functional assay. The source holds these as a separate data set.
The target is the same in assay [10]. The assay can be described thus: cell-based or functional assay. The source holds these as a separate data set.
For assay [11] the target is unchanged. The assay can be described thus: cell-based or functional assay. This is another data set of the same source.
Assay [12] shares this target. Kind of assay: cell-based or functional assay. This is another data set of the same source.
Assay [13] has the same target. The assay can be described thus: cell-based or functional assay. The source holds these as a separate data set.
For assay [14], the target named is T2, human IL31RA protein (Acrobiosystem, Cat:ILA-H5256) (human, UniProt Q8NI17 20-519, limits assumed).
T2 construct: Bought; loaded on protein A sensor tips; also called hIL-31RA; hIL31R
T2 sequence (looked up): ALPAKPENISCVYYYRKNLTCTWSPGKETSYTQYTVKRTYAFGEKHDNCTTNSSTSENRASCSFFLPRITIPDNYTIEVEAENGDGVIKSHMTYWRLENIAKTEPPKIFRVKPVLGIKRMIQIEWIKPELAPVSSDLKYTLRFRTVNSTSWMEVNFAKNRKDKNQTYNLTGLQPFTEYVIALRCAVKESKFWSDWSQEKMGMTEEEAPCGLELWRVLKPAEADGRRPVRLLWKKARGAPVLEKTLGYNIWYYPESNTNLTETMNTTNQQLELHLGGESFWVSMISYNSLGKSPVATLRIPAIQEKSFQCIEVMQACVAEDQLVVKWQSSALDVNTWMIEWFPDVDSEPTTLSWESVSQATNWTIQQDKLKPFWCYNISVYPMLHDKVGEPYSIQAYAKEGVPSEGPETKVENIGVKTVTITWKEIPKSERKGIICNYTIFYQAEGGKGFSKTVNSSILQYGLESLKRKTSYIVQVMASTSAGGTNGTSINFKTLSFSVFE
Kind of assay: Octet K2 BLI, receptor loaded on protein A tips, antibody in solution. As to the method:
(§1) Binding of the purified antibodies to cECD-IL-31RA was analyzed using the Octet system (BLI technology, Fortebio). Octet K2 instrument was used to measure the binding kinetics of either canine IL-31RA (cIL-31RA) or human IL31RA (hIL-31RA) to 8DE and 3F1 antibodies. cIL-31RA (see example 1) or hIL31R proteins (Acrobiosystem, Cat:ILA-H5256) were attached to the surface of the protein A (fortéBio, Part No: 18-5013) sensor tip (5 ug/ml, 200 ul, 120 sec). […] Then, the antibodies were allowed to dissociate for 600 seconds. All the dilutions were made in PBS-Tween (0.05%) solution. The measurement was corrected for baseline drift by subtracting a control sensor exposed to running buffer (PBS-Tween, 0.05%) only. Data analysis and curve fitting were carried out using the own software (local fitting, 1:1 Langmuir model) of the device.
For orientation: BLI is a label-free optical method that tracks binding on a fibre tip over time.

For assay [15], the target named is T3, Recombinant extra cellular domain of canine IL-31 receptor A (cECD-IL-31RA), His-tagged (canine).
T3 construct: also called cIL-31RA; cIL31r
T3 chain: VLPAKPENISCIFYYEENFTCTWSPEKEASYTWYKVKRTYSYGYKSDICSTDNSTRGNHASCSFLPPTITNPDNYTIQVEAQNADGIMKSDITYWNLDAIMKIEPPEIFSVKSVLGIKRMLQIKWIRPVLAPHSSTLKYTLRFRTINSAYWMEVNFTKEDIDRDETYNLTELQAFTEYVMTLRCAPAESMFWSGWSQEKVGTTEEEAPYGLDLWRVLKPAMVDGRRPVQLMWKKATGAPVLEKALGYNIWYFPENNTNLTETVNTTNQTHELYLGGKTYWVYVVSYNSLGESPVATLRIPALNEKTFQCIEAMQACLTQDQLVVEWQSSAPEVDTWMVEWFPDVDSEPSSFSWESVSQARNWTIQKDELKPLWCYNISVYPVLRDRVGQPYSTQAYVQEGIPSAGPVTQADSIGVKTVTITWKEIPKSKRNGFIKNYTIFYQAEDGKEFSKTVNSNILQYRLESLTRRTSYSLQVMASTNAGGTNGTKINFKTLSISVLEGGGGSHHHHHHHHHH
The assay can be described thus: Octet K2 BLI, cIL-31RA loaded on protein A tips, antibody at 15.6, 3.91, 0.98 nM, 1:1 Langmuir local fit. The protocol:
as §1

Read-outs that look alike come from different tables or passages of the source. Bounds are passed on as bounds.

B1: 8D3-VHL/8D3-VLH caninized antibody (VTQ2101) (antibody, V domains shown)
VH: EVTLQESGPGLVKPSQTLSLTCVASGFSIKSSFIHWLRQRPGRGLEWIGRIDPAFGATEYNPAFQGRFSITADTAKNQASLQLSSMTTEDSAVYYCARYHYAASHFDAWGQGTLVTVSS
VL: RIVMTQSPGSLAGSVGESVSINCKSSQSVTNDLTWYQQKPGEAPKVLITYASQRYTGVPARFSGSGYGTDFTLTINNLQAEDVGDYFCQQDYASPFTFGQGTKLEIK
B1: the “Mean IC50 (nM) (n = 3), HEK-Blue cell-based SEAP assay” value in [1] was 0.33 nM. Further, the “IC50 ratio (IC50 candidate/IC50 VTQ2101)” value in [2], in assay [3] and in assay [4] was 1 ratio throughout. The “IC50 (read off the curve); STAT3-SEAP reporter, canine IL-31 stimulation” value (shortened to “IC50 (read off the curve)”) in [5] was roughly 0.3 nM; in assay [6] it was roughly 0.05 nM; in assay [7], roughly 1 nM; in assay [8] it was roughly 1 nM; in assay [9], roughly 0.6 nM; in [10], roughly 0.6 nM. Also, the “IC50 (read off the curve)” value in assay [11] and in [12] was roughly 0.6 nM each time.

B2: 8D3 chimeric canine IgGB antibody (antibody, V domains shown)
VH: EVQLQQSGAELVKPGASVKLSCTASGFNIKDSFIHWLKQRPEQGLEWIGRIDPANGNTEYDPNFQGKDTITADTSSNTAYLQVSSLTSEDTAVYYCARYYYGNSHFDCWGQGTTLTVSS
VL: RIVMNQTPKFLPISAGDRVIITCKASQSVTNDVTWYQQKPGQSPKVLIHYASNRYTGVPDRFTGSGYGTDFTFTISTVQAEDLAVYFCQQDYSSPFTFGSGTKLEIK
notes: also called chimeric 8D3
As for B2, in assay [1], the “Mean IC50 (nM) (n = 3), HEK-Blue cell-based SEAP assay” value came to 0.43 nM. Moreover, the “IC50 (read off the curve)” value in [13] was roughly 0.5 nM. The binding result in assay [14] was “no binding”. Also, the Kd in [15] is less than 0.001 nM.

The term Kd denotes the concentration at which binding is half-saturated.
